Assay results from paper PMC4922050, “Stress-induced nuclear translocation of CDK5 suppresses neuronal death by downregulating ERK activation via VRK3 phosphorylation” (Scientific Reports, 2016).

Key:
Test in all cases: pull-down; GST-VRK3 (wild type, S108A, S108E) incubated overnight with recombinant VHR or recombinant phospho-ERK2 in Triton lysis buffer with 1 mM DTT and 10% glycerol, then glutathione-sepharose 4B beads at 4 °C for 1 h
Settings in all cases: both partners purified
[1] = target: T1, GST-tagged recombinant full-length VRK3 (vaccinia-related kinase 3), wild type (human, UniProt Q8IV63 1-474)
T1 construct: vaccinia-related kinase 3 (VRK3), human; coding region amplified by RT-PCR from mRNA of human cell lines and cloned into pGEX4T-3; full length (fragment F3 ends at amino acid 474); pGEX4T-3 vector; also called GST-VRK3; VRK3^WT; source: E. coli BL21 (DE3) pLysS, purified (glutathione-sepharose 4B)
T1 sequence (looked up): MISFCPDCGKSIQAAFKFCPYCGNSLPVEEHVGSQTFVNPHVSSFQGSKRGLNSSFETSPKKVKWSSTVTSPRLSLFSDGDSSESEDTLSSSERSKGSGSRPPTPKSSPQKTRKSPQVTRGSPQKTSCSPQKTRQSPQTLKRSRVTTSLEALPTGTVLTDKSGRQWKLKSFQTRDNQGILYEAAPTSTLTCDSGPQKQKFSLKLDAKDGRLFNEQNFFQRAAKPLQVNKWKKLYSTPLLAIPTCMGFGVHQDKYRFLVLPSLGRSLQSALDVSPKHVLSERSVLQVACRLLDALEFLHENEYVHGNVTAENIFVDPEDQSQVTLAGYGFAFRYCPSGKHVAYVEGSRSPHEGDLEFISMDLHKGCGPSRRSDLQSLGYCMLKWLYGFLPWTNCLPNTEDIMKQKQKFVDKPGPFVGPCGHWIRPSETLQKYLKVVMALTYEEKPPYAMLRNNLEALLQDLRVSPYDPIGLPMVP

[2] = target: T2, GST-VRK3^S108A (human, UniProt Q8IV63 1-474, S108A)
T2 construct: vaccinia-related kinase 3 (VRK3), human; S108A made by site-directed mutagenesis in pGEX4T-3; pGEX4T-3 vector; also called S108A mutant VRK3; source: E. coli BL21 (DE3) pLysS, purified (glutathione-sepharose 4B)
T2 sequence (looked up): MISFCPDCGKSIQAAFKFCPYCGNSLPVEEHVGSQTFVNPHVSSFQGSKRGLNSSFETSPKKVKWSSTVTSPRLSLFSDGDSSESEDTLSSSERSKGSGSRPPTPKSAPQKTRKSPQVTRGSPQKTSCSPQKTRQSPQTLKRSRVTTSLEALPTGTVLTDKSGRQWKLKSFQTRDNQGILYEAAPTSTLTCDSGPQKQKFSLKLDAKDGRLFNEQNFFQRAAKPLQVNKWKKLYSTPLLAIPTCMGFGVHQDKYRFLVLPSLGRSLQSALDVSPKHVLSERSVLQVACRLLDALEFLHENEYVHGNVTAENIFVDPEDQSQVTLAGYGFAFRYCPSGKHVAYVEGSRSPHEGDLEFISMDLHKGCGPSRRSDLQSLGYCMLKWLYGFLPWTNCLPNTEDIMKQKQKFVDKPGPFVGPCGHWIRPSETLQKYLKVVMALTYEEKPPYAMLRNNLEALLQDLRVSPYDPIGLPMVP

[3] = target: T3, GST-VRK3^S108E (human, UniProt Q8IV63 1-474, S108E)
T3 construct: vaccinia-related kinase 3 (VRK3), human; S108E (phosphomimetic) made by site-directed mutagenesis in pGEX4T-3; pGEX4T-3 vector; also called S108E mutant VRK3; phosphomimetic mutant of VRK3; source: E. coli BL21 (DE3) pLysS, purified (glutathione-sepharose 4B)
T3 sequence (looked up): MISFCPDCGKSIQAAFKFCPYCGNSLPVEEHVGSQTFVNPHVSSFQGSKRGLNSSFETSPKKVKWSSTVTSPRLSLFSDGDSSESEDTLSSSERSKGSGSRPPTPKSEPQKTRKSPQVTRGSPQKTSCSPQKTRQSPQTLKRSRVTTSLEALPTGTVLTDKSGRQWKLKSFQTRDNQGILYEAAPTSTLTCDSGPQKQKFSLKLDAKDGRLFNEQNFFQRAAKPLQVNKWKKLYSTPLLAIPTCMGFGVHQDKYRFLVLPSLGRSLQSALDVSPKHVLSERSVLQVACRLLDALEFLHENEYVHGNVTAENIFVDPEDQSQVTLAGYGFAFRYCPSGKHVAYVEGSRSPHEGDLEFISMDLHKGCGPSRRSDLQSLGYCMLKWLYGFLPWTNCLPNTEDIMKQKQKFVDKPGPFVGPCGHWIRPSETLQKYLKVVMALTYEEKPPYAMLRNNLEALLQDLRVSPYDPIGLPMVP

binding result [1]: binds
binding result [2]: binds
binding result [3]: binds
B1: recombinant VHR (vaccinia H1-related phosphatase) (enzyme, human, UniProt P51452 1-185, looked up)
chain: MSGSFELSVQDLNDLLSDGSGCYSLPSQPCNEVTPRIYVGNASVAQDIPKLQKLGITHVLNAAEGRSFMHVNTNANFYKDSGITYLGIKANDTQEFNLSAYFERAADFIDQALAQKNGRVLVHCREGYSRSPTLVIAYLMMRQKMDVKSALSIVRQNREIGPNDGFLAQLCQLNDRLAKEGKLKP
notes: vaccinia H1-related (VHR) phosphatase; coding region amplified by RT-PCR from mRNA of human cell lines (SH-SY5Y, HEK293A, HeLa); source: E. coli BL21 (DE3) pLysS, purified
